Starred links: 1 amine or outer side, 2 acyl side, 3 side chain; linkers in the order of their positions; H or OH if unused. Non-standard residues stand in square brackets, D forms with d. Groups on a side chain read outwards from the residue. *: point of attachment. Ala(1H-tetrazol-5-yl) = N[C@@H](Cc1nnn[nH]1)C(=O)O; PEG11 = NCCOCCOCCOCCOCCOCCOCCOCCOCCOCCOCCOCCC(=O)O; C18 diacid = O=C(O)CCCCCCCCCCCCCCCCC(=O)*; Dip = N[C@H](C(=O)O)C(c1ccccc1)c1ccccc1; γGlu = O=C(O)[C@H](CCC(=O)[*:2])N[*:1]; His(τ-Me) = Cn1cnc(C[C@H](N)C(=O)O)c1; Palmitoyl = CCCCCCCCCCCCCCCC(=O)*; β3hF = N[C@H](CC(=O)O)Cc1ccccc1; NMeK = CN[C@@H](CCCCN)C(=O)O; Isovaleryl = CC(C)CC(=O)*; AEEA = NCCOCCOCC(=O)O; Ahx = NCCCCCC(=O)O
T1: human ferroportin (SLC40A1) fused in frame with GFP, stably expressed in HEK293 cells (human, UniProt Q9NP59 1-571)
T1 sequence (looked up): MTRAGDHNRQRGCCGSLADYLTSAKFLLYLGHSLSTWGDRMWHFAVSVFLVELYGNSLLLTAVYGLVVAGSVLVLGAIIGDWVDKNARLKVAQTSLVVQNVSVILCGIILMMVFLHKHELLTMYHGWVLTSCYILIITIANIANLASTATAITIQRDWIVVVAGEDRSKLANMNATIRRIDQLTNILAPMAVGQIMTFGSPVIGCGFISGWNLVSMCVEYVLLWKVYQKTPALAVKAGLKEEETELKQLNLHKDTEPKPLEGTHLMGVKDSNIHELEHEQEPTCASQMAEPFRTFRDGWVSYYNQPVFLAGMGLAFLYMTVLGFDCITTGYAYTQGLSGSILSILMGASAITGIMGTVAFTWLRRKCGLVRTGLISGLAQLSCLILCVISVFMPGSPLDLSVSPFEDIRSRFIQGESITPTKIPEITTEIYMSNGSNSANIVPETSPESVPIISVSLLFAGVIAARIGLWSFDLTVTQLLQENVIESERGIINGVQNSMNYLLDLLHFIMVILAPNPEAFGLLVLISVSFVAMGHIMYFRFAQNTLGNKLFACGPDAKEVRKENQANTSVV

T2: ferroportin endogenously expressed on T47D cells (HTB 133, ATCC) (human, UniProt Q9NP59 1-571)
T2 sequence (looked up): T1 sequence (looked up)

B1: Isovaleric Acid-[Tet1]-T-[(1Me)His]-[Dpa]-P-A-I-[(N-Me)Lys]-[bhPhe]-[Lys(Ahx_Palm)]-NH2 (peptide)
peptide: Isovaleryl-[Ala(1H-tetrazol-5-yl)]T[His(τ-Me)][Dip]PAI[NMeK][β3hF]K([Ahx-Palmitoyl])-NH2
SMILES: CCCCCCCCCCCCCCCC(=O)NCCCCCC(=O)NCCCC[C@H](NC(=O)C[C@H](Cc1ccccc1)NC(=O)[C@H](CCCCN)N(C)C(=O)[C@@H](NC(=O)[C@H](C)NC(=O)[C@@H]1CCCN1C(=O)[C@@H](NC(=O)[C@H](Cc1cn(C)cn1)NC(=O)[C@@H](NC(=O)[C@H](Cc1nnn[nH]1)NC(=O)CC(C)C)[C@@H](C)O)C(c1ccccc1)c1ccccc1)[C@@H](C)CC)C(N)=O
B2: Isovaleric Acid-K-T-H-[Dpa]-P-A-I-E-[bhPhe]-[Lys(Ahx_Palm)]-R-NH2; (K and E cyclized) (peptide)
peptide: XKTHXPAIEXXR
modifications: N-term Isovaleric Acid; Dpa4; bhPhe9; Lys(Ahx_Palm)10; C-term NH2; K and E cyclized (lactam)
B3: Isovaleric Acid-E-T-H-[Dpa]-P-A-I-[(D)Lys]-[bhPhe]-[Lys(Ahx_Palm)]-[(D)Lys]-A-NH2 (peptide)
peptide: Isovaleryl-ETH[Dip]PAI[dK][β3hF]K([Ahx-Palmitoyl])[dK]A-NH2
SMILES: CCCCCCCCCCCCCCCC(=O)NCCCCCC(=O)NCCCC[C@H](NC(=O)C[C@H](Cc1ccccc1)NC(=O)[C@@H](CCCCN)NC(=O)[C@@H](NC(=O)[C@H](C)NC(=O)[C@@H]1CCCN1C(=O)[C@@H](NC(=O)[C@H](Cc1c[nH]cn1)NC(=O)[C@@H](NC(=O)[C@H](CCC(=O)O)NC(=O)CC(C)C)[C@@H](C)O)C(c1ccccc1)c1ccccc1)[C@@H](C)CC)C(=O)N[C@H](CCCCN)C(=O)N[C@@H](C)C(N)=O
B4: Isovaleric Acid-E-T-H-[Dpa]-P-A-I-[Lys(IsoGlu_Palm)]-[bhPhe]-[(D)Lys]-NH2 (peptide)
peptide: Isovaleryl-ETH[Dip]PAIK([γGlu-Palmitoyl])[β3hF][dK]-NH2
SMILES: CCCCCCCCCCCCCCCC(=O)N[C@@H](CCC(=O)NCCCC[C@H](NC(=O)[C@@H](NC(=O)[C@H](C)NC(=O)[C@@H]1CCCN1C(=O)[C@@H](NC(=O)[C@H](Cc1c[nH]cn1)NC(=O)[C@@H](NC(=O)[C@H](CCC(=O)O)NC(=O)CC(C)C)[C@@H](C)O)C(c1ccccc1)c1ccccc1)[C@@H](C)CC)C(=O)N[C@H](CC(=O)N[C@H](CCCCN)C(N)=O)Cc1ccccc1)C(=O)O
B5: Isovaleric Acid-E-T-H-[Dpa]-P-K-[bhPhe]-[Lys(Ahx_Palm)]-NH2 (peptide)
peptide: XETHXPKXX
modifications: N-term Isovaleric Acid; Dpa4; bhPhe7; Lys(Ahx_Palm)8; C-term NH2; cyclized E-K (lactam)

Each binder was assayed against T1, human ferroportin (SLC40A1) fused in … (assay: cell-based or functional assay).

FPN EC50	Binder
588 nM	Isovaleryl-ETHFPAIK([AEEA-AEEA-Ahx-C18 diacid])FEPRSKGAK-NH2 [Isovaleric Acid-E-T-H-F-P-A-I-[Lys(1Peg2_1Peg2_Ahx_C18_Diacid)]-F-E-P-R-S-K-G-A-K-NH2]
2360 nM	Isovaleryl-ETHFPAIK([AEEA-AEEA-γGlu-C18 diacid])FEPRSKGAK-NH2 [Isovaleric Acid-E-T-H-F-P-A-I-[Lys(1PEG2_1PEG2_IsoGlu_C18_Diacid)]-F-E-P-R-S-K-G-A-K-NH2]
429 nM	Isovaleryl-ETH[Dip]PAIK([AEEA-AEEA-γGlu-C18 diacid])[β3hF][dK]-NH2 [Isovaleric Acid-E-T-H-[Dpa]-P-A-I-[Lys(1PEG2_1PEG2_IsoGlu_C18_Diacid)]-[bhPhe]-[(D)Lys]-NH2]
280 nM	Isovaleryl-ETHFPAIK([γGlu-Palmitoyl])FEPRSKGAK-NH2 [Isovaleric Acid-E-T-H-F-P-A-I-[Lys(IsoGlu_Palm)]-F-E-P-R-S-K-G-A-K-NH2]
23.9 nM	B1
25.9 nM	DiIsoAmylAmine_CH2_Acid-TH[Dip]PAIK([Ahx-Palmitoyl])[β3hF][dK]-NH2 [[DiIsoAmylAmine_CH2_Acid]-T-H-[Dpa]-P-A-I-[Lys(Ahx_Palm)]-[bhPhe]-[(D)Lys]-NH2]
175 nM	Isovaleryl-ETH[Dip]PAIK(Ac)[β3hF]-NH2 [Isovaleric Acid-E-T-H-[Dpa]-P-A-I-[Lys(Ac)]-[bhPhe]-NH2]
13.8 nM	B2
17.8 nM	B3
44.5 nM	Isovaleryl-ETH[Dip]PAIK([PEG11-Palmitoyl])[β3hF]-NH2 [Isovaleric Acid-E-T-H-[Dpa]-P-A-I-[Lys(2PEG11_Palm)]-[bhPhe]-NH2]
314 nM	B4

The binders below were run against T2, ferroportin endogenously expressed on … (assay: cell-based or functional assay).

T47D MSA IC50	Binder
52.3 nM	B5
261 nM	Isovaleryl-ETHFPAIK([AEEA-AEEA-Ahx-C18 diacid])FEPRSKGAK-NH2 [Isovaleric Acid-E-T-H-F-P-A-I-[Lys(1Peg2_1Peg2_Ahx_C18_Diacid)]-F-E-P-R-S-K-G-A-K-NH2]
3440 nM	Isovaleryl-ETHFPAIK([AEEA-AEEA-γGlu-C18 diacid])FEPRSKGAK-NH2 [Isovaleric Acid-E-T-H-F-P-A-I-[Lys(1PEG2_1PEG2_IsoGlu_C18_Diacid)]-F-E-P-R-S-K-G-A-K-NH2]
65.8 nM	Isovaleryl-ETH[Dip]PAIK([AEEA-AEEA-γGlu-C18 diacid])[β3hF][dK]-NH2 [Isovaleric Acid-E-T-H-[Dpa]-P-A-I-[Lys(1PEG2_1PEG2_IsoGlu_C18_Diacid)]-[bhPhe]-[(D)Lys]-NH2]
289 nM	Isovaleryl-ETHFPAIK([γGlu-Palmitoyl])FEPRSKGAK-NH2 [Isovaleric Acid-E-T-H-F-P-A-I-[Lys(IsoGlu_Palm)]-F-E-P-R-S-K-G-A-K-NH2]
3.94 nM	B1
52.9 nM	DiIsoAmylAmine_CH2_Acid-TH[Dip]PAIK([Ahx-Palmitoyl])[β3hF][dK]-NH2 [[DiIsoAmylAmine_CH2_Acid]-T-H-[Dpa]-P-A-I-[Lys(Ahx_Palm)]-[bhPhe]-[(D)Lys]-NH2]
355 nM	Isovaleryl-ETH[Dip]PAIK(Ac)[β3hF]-NH2 [Isovaleric Acid-E-T-H-[Dpa]-P-A-I-[Lys(Ac)]-[bhPhe]-NH2]
1.74 nM	B2
5.97 nM	B3
1.88 nM	Isovaleryl-ETH[Dip]PAIK([PEG11-Palmitoyl])[β3hF]-NH2 [Isovaleric Acid-E-T-H-[Dpa]-P-A-I-[Lys(2PEG11_Palm)]-[bhPhe]-NH2]
13.3 nM	B4

Source: patent US20240066131A1 (Protagonist Therapeutics, Inc., priority 2020, published 2024)
